In this data set the target is T1, MBP-RAD51AP1-His6 WT (UniProt Q96B01 1-352).
T1 sequence: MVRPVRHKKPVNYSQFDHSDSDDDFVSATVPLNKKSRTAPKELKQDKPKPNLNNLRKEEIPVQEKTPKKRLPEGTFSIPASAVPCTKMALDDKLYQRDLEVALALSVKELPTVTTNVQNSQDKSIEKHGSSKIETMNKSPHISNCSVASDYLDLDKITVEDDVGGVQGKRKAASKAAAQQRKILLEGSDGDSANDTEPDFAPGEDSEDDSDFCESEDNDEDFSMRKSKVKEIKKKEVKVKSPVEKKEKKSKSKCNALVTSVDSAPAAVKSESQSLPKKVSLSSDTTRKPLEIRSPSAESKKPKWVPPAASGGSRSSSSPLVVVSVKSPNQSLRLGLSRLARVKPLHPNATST
Put plainly: EMSA.

B1: TERRA R-loop (mixed)
DNA 1: CATTGCATATTTAAAACATGTTGGATCTCAATTTCTATTTTATTTTTATTTTTTATTTCTTTATTTTACCATGAATTCAAATGACCTCTTATCAAGTGAC
DNA 2: GTCACTTGATAAGAGGTCATTTGAATTCATCCTAACCCTAACCCTAACCCTAACCCTAACCCTAACCCTAAGAGATCCAACATGTTTTAAATATGCAATG
RNA: UUAGGGUUAGGGUUAGGGUUAGGGUUAGGGUUAGGGUUAG
In the case of B1, the binding result is “binds”.

(Values after PMC9713952.)
